Test results published in the RNAGym collection of RNA variant scans (doi:10.7554/elife.80360).

B1: HDV Ribozyme (parent)
chain: GGCCGGCAUGGUCCCAGCCUCCUCGCUGGCGCCGGCUGGGCAACAUUCCGAGGGGACCGUCCCCUCGGUAAUGGCGAAUGGGACCCA

Variants of: B1
Test: self-cleavage, relative activity (ratio to wild type); higher = more cleavage; co-transcriptional

First: GGCCGGCAUGGUCCCAGCCUCCUCGCUGGCGCCGGCUGGGUAACAUUCCGAGAGGACCGUCCCCUCGGUAAUGGCGAAUGGGACCCA
Second: GGCCGGCAUGGUCCCAGCCUCCUCGCUGGCGCCGGCUGGGUAACAUUCCGAGGGGACCGUCCCCUCGGUAAUGCCGAAUGGGACCCA
The self-cleavage of the first is higher: 1.12 for the first, 0.174 for the second.

Compared with GGCCGGCAUGGUCCCAGCCUCCUCGCUGGCGCCGGCUGGGUAACAUUCCGAGGGGACCGUCCCCUCGGUAAUGUCGAAUGGGACCCA, GGCCGGCAUGGUCCCAGCCUCCUCGCUGGCGCCGGCUGGGUAACAUUCCGAGGGGACCGUCCCCUCGGUAAUGGCGAAUGGAACCCA is lower in self-cleavage: 0.806 for the first, 0.246 for the second.

First: GGCCGGCAUGGUCCCAGCCUCCUCGCUGGCGCCGGCUGGGUAACAUUCCGAGGGGACCGUCCCCUCGGUAAUGGCGAAUGGUACCCA
Second: GGCCGGCAUGGUCCCAGCCUCCUCGCUGGCGCCGGCUGGGGAACAUUCCGAGGUGACCGUCCCCUCGGUAAUGGCGAAUGGGACCCA
The self-cleavage of the first is lower: 0.261 for the first, 0.739 for the second.

Going from GGCCGGCAUGGUCCCAGCCUCCUCGCUGGCGCCGGCUGGGUAACAUUGCGAGGGGACCGUCCCCUCGGUAAUGGCGAAUGGGACCCA to GGCCGGCAUGGUCCCAGCCUCCUCGCUGGCGCCGGCUGGGUAACAUUCCGAGGGGACCGUCCCCUCGGUAAUAGCGAAUGGGACCCA, the self-cleavage falls from 0.955 to 0.929.

First: GGCCGGCAUGGUCCCAGCCUCCUCGCUGGCGCCGGCUGGGUAACAUUCCGAGGGGACCGUCCCCUCGGUAAUCGCGAAUGGGACCCA
Second: GGCCGGCAUGGUCCCAGCCUCCUCGCUGGCGCCGGCUGGGUAACAUUCCGAGGGGACCGUCCCCUCGUUAAUGGCGAAUGGGACCCA
The self-cleavage of the first is higher: 0.507 for the first, 0.504 for the second.

Going from GGCCGGCAUGGUCCCAGCCUCCUCGCUGGCGCCGGCUGGGGAACAUUCCGAGGGGACCGUCCCCUCGGUAAUUGCGAAUGGGACCCA to GGCCGGCAUGGUCCCAGCCUCCUCGCUGGCGCCGGCUGGGGAACAUACCGAGGGGACCGUCCCCUCGGUAAUGGCGAAUGGGACCCA, the self-cleavage rises from 0.378 to 1.12.

First: GGCCGGCAUGGUCCCAGCCUCCUCGCUGGCGCCGGCUGGGGAACAUUCCGAGGGGACCGUCCCCUCGGUAAUGGCGAAUGGGACCUA
Second: GGCCGGCAUGGUCCCAGCCUCCUCGCUGGCGCCGGCUGGGUAACAUUCCGAGGGGACCGUCCCCUCGGUAAUGGCGAAUGGGAGCCA
The self-cleavage of the first is higher: 0.657 for the first, 0.589 for the second.

First: GGCCGGCAUGGUCCCAGCCUCCUCGCUGGCGCCGGCUGGGUAACAUUCCGAGGGGACCGUCCCCUCGGUAAUGGCGAAUGGGACCUA
Second: GGCCGGCAUGGUCCCAGCCUCCUCGCUGGCGCCGGCUGGGGAAUAUUCCGAGGGGACCGUCCCCUCGGUAAUGGCGAAUGGGACCCA
The self-cleavage of the first is higher: 0.967 for the first, 0.403 for the second.

Going from GGCCGGCAUGGUCCCAGCCUCCUCGCUGGCGCCGGCUGGGUAACAUUCCGAGGGGACCGUCCCCUCGGUAAUGGCGAACGGGACCCA to GGCCGGCAUGGUCCCAGCCUCCUCGCUGGCGCCGGCUGGGGAACAUUCCGAGGGGACCGUCCUCUCGGUAAUGGCGAAUGGGACCCA, the self-cleavage rises from 0.332 to 0.844.

First: GGCCGGCAUGGUCCCAGCCUCCUCGCUGGCGCCGGCUGGGUAACAUUCCGAGGGGACCGUCCCCUCGGUAAUGGCGAAUGGGACGCA
Second: GGCCGGCAUGGUCCCAGCCUCCUCGCUGGCGCCGGCUGGGUAACAUUCCGAGGGGACCGUCCCCUCGGUAAUGGCGAAUGGGACACA
The self-cleavage of the first is lower: 0.911 for the first, 0.937 for the second.

First: GGCCGGCAUGGUCCCAGCCUCCUCGCUGGCGCCGGCUGGGGAACAUUCCGAGGGGACCGUCCCCUCGGUAACGGCGAAUGGGACCCA
Second: GGCCGGCAUGGUCCCAGCCUCCUCGCUGGCGCCGGCUGGGGAACAUUCCGAGGGGACCGUCCCCUCGGUAAAGGCGAAUGGGACCCA
The self-cleavage of the first is lower: 0.201 for the first, 0.499 for the second.

Going from GGCCGGCAUGGUCCCAGCCUCCUCGCUGGCGCCGGCUGGGGAACAUUCCGAGGGGACCGACCCCUCGGUAAUGGCGAAUGGGACCCA to GGCCGGCAUGGUCCCAGCCUCCUCGCUGGCGCCGGCUGGGGAACAUUCCGAGGGGACCGUCCCCUCGGUAAUGGCGAAUGGGACCCC, the self-cleavage falls from 0.733 to 0.65.

Going from GGCCGGCAUGGUCCCAGCCUCCUCGCUGGCGCCGGCUGGGGAACAUUCCCAGGGGACCGUCCCCUCGGUAAUGGCGAAUGGGACCCA to GGCCGGCAUGGUCCCAGCCUCCUCGCUGGCGCCGGCUGGGGAACAUUCCAAGGGGACCGUCCCCUCGGUAAUGGCGAAUGGGACCCA, the self-cleavage rises from 0.554 to 0.911.

First: GGCCGGCAUGGUCCCAGCCUCCUCGCUGGCGCCGGCUGGGUAACAUUCCGAGGGGAACGUCCCCUCGGUAAUGGCGAAUGGGACCCA
Second: GGCCGGCAUGGUCCCAGCCUCCUCGCUGGCGCCGGCUGGGGAACAUUCCGAGGGGACAGUCCCCUCGGUAAUGGCGAAUGGGACCCA
The self-cleavage of the first is higher: 0.986 for the first, 0.895 for the second.

Going from GGCCGGCAUGGUCCCAGCCUCCUCGCUGGCGCCGGCUGGGGAACAUUCCGAGGGGACUGUCCCCUCGGUAAUGGCGAAUGGGACCCA to GGCCGGCAUGGUCCCAGCCUCCUCGCUGGCGCCGGCUGGGGAACAUUCCGAGGGGACCGUCCCCUCGGUAAUGGCGAAUUGGACCCA, the self-cleavage falls from 0.746 to 0.124.

Compared with GGCCGGCAUGGUCCCAGCCUCCUCGCUGGCGCCGGCUGGGUAACAAUCCGAGGGGACCGUCCCCUCGGUAAUGGCGAAUGGGACCCA, GGCCGGCAUGGUCCCAGCCUCCUCGCUGGCGCCGGCUGGGGAACAUUCGGAGGGGACCGUCCCCUCGGUAAUGGCGAAUGGGACCCA is lower in self-cleavage: 0.942 for the first, 0.597 for the second.

Going from GGCCGGCAUGGUCCCAGCCUCCUCGCUGGCGCCGGCUGGGGAACAUUCUGAGGGGACCGUCCCCUCGGUAAUGGCGAAUGGGACCCA to GGCCGGCAUGGUCCCAGCCUCCUCGCUGGCGCCGGCUGGGGAACAUUCCGAGGGGACCGUCCCCUCGGUUAUGGCGAAUGGGACCCA, the self-cleavage rises from 0.608 to 0.746.

Going from GGCCGGCAUGGUCCCAGCCUCCUCGCUGGCGCCGGCUGGGUAACAUUCCGAGGGGACCGUCCCCUCGGUAAUGGAGAAUGGGACCCA to GGCCGGCAUGGUCCCAGCCUCCUCGCUGGCGCCGGCUGGGGAACAUUCCGAGGGGACCGUCCCCUCGGUAAUGGCGAAUGGCACCCA, the self-cleavage rises from 0.0665 to 0.158.

First: GGCCGGCAUGGUCCCAGCCUCCUCGCUGGCGCCGGCUGGGUAACAUCCCGAGGGGACCGUCCCCUCGGUAAUGGCGAAUGGGACCCA
Second: GGCCGGCAUGGUCCCAGCCUCCUCGCUGGCGCCGGCUGGGUAACAUGCCGAGGGGACCGUCCCCUCGGUAAUGGCGAAUGGGACCCA
The self-cleavage of the first is lower: 0.799 for the first, 0.95 for the second.

Compared with GGCCGGCAUGGUCCCAGCCUCCUCGCUGGCGCCGGCUGGGUAACAUUCCGAGGGGACCGUCCCCUCGGCAAUGGCGAAUGGGACCCA, GGCCGGCAUGGUCCCAGCCUCCUCGCUGGCGCCGGCUGGGUAACAUUCCGAGGGGACCGUCCCAUCGGUAAUGGCGAAUGGGACCCA is lower in self-cleavage: 0.955 for the first, 0.906 for the second.

Compared with GGCCGGCAUGGUCCCAGCCUCCUCGCUGGCGCCGGCUGGGUAACAUUCCGAGGGGACCGUCCCGUCGGUAAUGGCGAAUGGGACCCA, GGCCGGCAUGGUCCCAGCCUCCUCGCUGGCGCCGGCUGGGUAACAUUCCGAGGGGACCGUCCCUUCGGUAAUGGCGAAUGGGACCCA is higher in self-cleavage: 0.635 for the first, 0.892 for the second.

Compared with GGCCGGCAUGGUCCCAGCCUCCUCGCUGGCGCCGGCUGGGGAACAUUCCGAGGGGACCGUCCCCUCGGUAAUGGCGAAUGGGACUCA, GGCCGGCAUGGUCCCAGCCUCCUCGCUGGCGCCGGCUGGGGAACAUUCCGAGGGGACCGUCCCCUCGGUAAUGGCGAAUGGGACGCA is lower in self-cleavage: 0.629 for the first, 0.429 for the second.

First: GGCCGGCAUGGUCCCAGCCUCCUCGCUGGCGCCGGCUGGGUAACAUUCCGAGGGGACCGUCCCCUCGGUCAUGGCGAAUGGGACCCA
Second: GGCCGGCAUGGUCCCAGCCUCCUCGCUGGCGCCGGCUGGGUAACAUUCCGAGGGGACCGUGCCCUCGGUAAUGGCGAAUGGGACCCA
The self-cleavage of the first is lower: 0.803 for the first, 0.923 for the second.

First: GGCCGGCAUGGUCCCAGCCUCCUCGCUGGCGCCGGCUGGGUAAGAUUCCGAGGGGACCGUCCCCUCGGUAAUGGCGAAUGGGACCCA
Second: GGCCGGCAUGGUCCCAGCCUCCUCGCUGGCGCCGGCUGGGUAAAAUUCCGAGGGGACCGUCCCCUCGGUAAUGGCGAAUGGGACCCA
The self-cleavage of the first is higher: 0.492 for the first, 0.353 for the second.

Going from GGCCGGCAUGGUCCCAGCCUCCUCGCUGGCGCCGGCUGGGGAACAUUCCGAGGGGACCGUCACCUCGGUAAUGGCGAAUGGGACCCA to GGCCGGCAUGGUCCCAGCCUCCUCGCUGGCGCCGGCUGGGGAACAUUCCGAGGGGACCGUCUCCUCGGUAAUGGCGAAUGGGACCCA, the self-cleavage rises from 0.814 to 0.815.

First: GGCCGGCAUGGUCCCAGCCUCCUCGCUGGCGCCGGCUGGGUAACAUUCCGAGGGGCCCGUCCCCUCGGUAAUGGCGAAUGGGACCCA
Second: GGCCGGCAUGGUCCCAGCCUCCUCGCUGGCGCCGGCUGGGUAACAUUCCGAGGGAACCGUCCCCUCGGUAAUGGCGAAUGGGACCCA
The self-cleavage of the first is lower: 1.04 for the first, 1.06 for the second.

Compared with GGCCGGCAUGGUCCCAGCCUCCUCGCUGGCGCCGGCUGGGUAACUUUCCGAGGGGACCGUCCCCUCGGUAAUGGCGAAUGGGACCCA, GGCCGGCAUGGUCCCAGCCUCCUCGCUGGCGCCGGCUGGGUAACGUUCCGAGGGGACCGUCCCCUCGGUAAUGGCGAAUGGGACCCA is lower in self-cleavage: 0.884 for the first, 0.575 for the second.

Compared with GGCCGGCAUGGUCCCAGCCUCCUCGCUGGCGCCGGCUGGGUAACAUUCCGAGGGGACCGUCCUCUCGGUAAUGGCGAAUGGGACCCA, GGCCGGCAUGGUCCCAGCCUCCUCGCUGGCGCCGGCUGGGUAACAUUCCGAGGGGACCGUCCCCUCGGUAAUGGCGAGUGGGACCCA is lower in self-cleavage: 1.12 for the first, 0.724 for the second.

First: GGCCGGCAUGGUCCCAGCCUCCUCGCUGGCGCCGGCUGGGGAACAUUCCGAGGGGACCGUCCCCUCGGUAAUGGCGAAUGGGGCCCA
Second: GGCCGGCAUGGUCCCAGCCUCCUCGCUGGCGCCGGCUGGGUAACAUUCCGAGGGGACCGUCGCCUCGGUAAUGGCGAAUGGGACCCA
The self-cleavage of the first is higher: 0.759 for the first, 0.426 for the second.

Going from GGCCGGCAUGGUCCCAGCCUCCUCGCUGGCGCCGGCUGGGUAACAUUCCGAGGGGACCGCCCCCUCGGUAAUGGCGAAUGGGACCCA to GGCCGGCAUGGUCCCAGCCUCCUCGCUGGCGCCGGCUGGGGAACAUUCCGAGGGGACCGUCCCCCCGGUAAUGGCGAAUGGGACCCA, the self-cleavage falls from 0.906 to 0.745.

Going from GGCCGGCAUGGUCCCAGCCUCCUCGCUGGCGCCGGCUGGGGAACAUUCCGAGGGGACCGUCCCCUCGGUAAUGGCGAAUGCGACCCA to GGCCGGCAUGGUCCCAGCCUCCUCGCUGGCGCCGGCUGGGGAACAUUCCGAGGGGACCGUCCCCUCGGUAAUGGCGAAUGUGACCCA, the self-cleavage rises from 0.138 to 0.166.

First: GGCCGGCAUGGUCCCAGCCUCCUCGCUGGCGCCGGCUGGGUAACAUUCCGACGGGACCGUCCCCUCGGUAAUGGCGAAUGGGACCCA
Second: GGCCGGCAUGGUCCCAGCCUCCUCGCUGGCGCCGGCUGGGGAACAUUCCGAGGGGACCGUCCCCUCGUUAAUGGCGAAUGGGACCCA
The self-cleavage of the first is higher: 0.819 for the first, 0.596 for the second.
